Data published in paper PMC12630686, “A degron-mimicking molecular glue drives CRBN homo-dimerization and degradation” (Nature Communications, 2025).

B1: HaloTag-mouse CRBN (wild type) [mouse] / hCRBN-NanoLuc with a 191-248 aa deletion (Trunc) [human] (parent)
chain 1: MAGEGDQQDAAHNMGNHLPLLPADSEDEDDEIEMEVEDQDSKEARKPNIINFDTSLPTSHTYLGADMEEFHGRTLHDDDSCQVIPVLPEVLMILIPGQTLPLQLSHPQEVSMVRNLIQKDRTFAVLAYSNVQEREAQFGTTAEIYAYREEQEFGIEVVKVKAIGRQRFKVLELRTQSDGIQQAKVQILPECVLPSTMSAVQLESLNKCQVFPSKPISWEDQYSCKWWQKYQKRKFHCANLTSWPRWLYSLYDAETLMDRIKKQLREWDENLKDDSLPENPIDFSYRVAACLPIDDVLRIQLLKIGSAIQRLRCELDIMNKCTSLCCKQCQETEITTKNEIFSLSLCGPMAAYVNPHGYVHETLTVYKASNLNLIGRPSTVHSWFPGYAWTIAQCKICASHIGWKFTATKKDMSPQKFWGLTRSALLPTIPETEDEISPDKVILCL
chain 2: MAGEGDQQDAAHNMGNHLPLLPAESEEEDEMEVEDQDSKEAKKPNIINFDTSLPTSHTYLGADMEEFHGRTLHDDDSCQVIPVLPQVMMILIPGQTLPLQLFHPQEVSMVRNLIQKDRTFAVLAYSNVQEREAQFGTTAEIYAYREEQDFGIEIVKVKAIGRQRFKVLELRTQSDGIQQAKVQILPECVLDAETLMDRIKKQLREWDENLKDDSLPSNPIDFSYRVAACLPIDDVLRIQLLKIGSAIQRLRCELDIMNKCTSLCCKQCQETEITTKNEIFSLSLCGPMAAYVNPHGYVHETLTVYKACNLNLIGRPSTEHSWFPGYAWTVAQCKICASHIGWKFTATKKDMSPQKFWGLTRSALLPTIPDTEDEISPDKVILCL
B2: HaloTag-CRBN (human, wild type) [human] / hCRBN-NanoLuc with a 191-248 aa deletion (Trunc) [human] (parent)
chain 1: MAGEGDQQDAAHNMGNHLPLLPAESEEEDEMEVEDQDSKEAKKPNIINFDTSLPTSHTYLGADMEEFHGRTLHDDDSCQVIPVLPQVMMILIPGQTLPLQLFHPQEVSMVRNLIQKDRTFAVLAYSNVQEREAQFGTTAEIYAYREEQDFGIEIVKVKAIGRQRFKVLELRTQSDGIQQAKVQILPECVLPSTMSAVQLESLNKCQIFPSKPVSREDQCSYKWWQKYQKRKFHCANLTSWPRWLYSLYDAETLMDRIKKQLREWDENLKDDSLPSNPIDFSYRVAACLPIDDVLRIQLLKIGSAIQRLRCELDIMNKCTSLCCKQCQETEITTKNEIFSLSLCGPMAAYVNPHGYVHETLTVYKACNLNLIGRPSTEHSWFPGYAWTVAQCKICASHIGWKFTATKKDMSPQKFWGLTRSALLPTIPDTEDEISPDKVILCL
chain 2: B1 chain 2

Variants of: B1
Assay: NanoBRET
Settings: with hCRBN-NanoLuc with a 191-248 aa deletion (Trunc) [human]; MRT-31619 at log10 concentration = 4 (highest dose; concentration unit inferred); six biological replicates, mean ± SD; read off a plot

response | Variant
2.7 mBU | chain 1 MAGEGDQQDAAHNMGNHLPLLPADSEDEDDEIEMEVEDQDSKEARKPNIINFDTSLPTSHTYLGADMEEFHGRTLHDDDSCQVIPVLPEVLMILIPGQTLPLQLSHPQEVSMVRNLIQKDRTFAVLAYSNVQEREAQFGTTAEIYAYREEQEFGIEVVKVKAIGRQRFKVLELRTQSDGIQQAKVQILPECVLPSTMSAVQLESLNKCQVFPSKPISWEDQYSCKWWQKYQKRKFHCANLTSWPRWLYSLYDAETLMDRIKKQLREWDENLKDDSLPENPIDFSYRVAACLPIDDVLRIQLLKIGSAIQRLRCELDIMNKCTSLCCKQCQETEITTKNEIFSLSLCGPMAAYVNPHGYVHETLTVYKASNLNLIGRPSTEHSWFPGYAWTVAQCKICASHIGWKFTATKKDMSPQKFWGLTRSALLPTIPETEDEISPDKVILCL [chain 1 V380E I391V]
1.9 mBU | chain 1 MAGEGDQQDAAHNMGNHLPLLPADSEDEDDEIEMEVEDQDSKEARKPNIINFDTSLPTSHTYLGADMEEFHGRTLHDDDSCQVIPVLPEVLMILIPGQTLPLQLFHPQEVSMVRNLIQKDRTFAVLAYSNVQEREAQFGTTAEIYAYREEQEFGIEVVKVKAIGRQRFKVLELRTQSDGIQQAKVQILPECVLPSTMSAVQLESLNKCQVFPSKPISWEDQYSCKWWQKYQKRKFHCANLTSWPRWLYSLYDAETLMDRIKKQLREWDENLKDDSLPENPIDFSYRVAACLPIDDVLRIQLLKIGSAIQRLRCELDIMNKCTSLCCKQCQETEITTKNEIFSLSLCGPMAAYVNPHGYVHETLTVYKASNLNLIGRPSTVHSWFPGYAWTIAQCKICASHIGWKFTATKKDMSPQKFWGLTRSALLPTIPETEDEISPDKVILCL [chain 1 S105F]

Variants of: B2
Assay: NanoBRET
Settings: with hCRBN-NanoLuc with a 191-248 aa deletion (Trunc) [human]; MRT-31619 at log10 concentration = 4 (highest dose; concentration unit inferred); three biological replicates, mean ± SEM; read off a plot

response | Variant
2.9 mBU | chain 1 MAGEGDQQDAAHNMGNHLPLLPAESEEEDEMEVEDQDSKEAKKPNIINFDTSLPTSHTYLGADMEEFHGRTLHDDDSCQVIPVLPQVMMILIPGQTLPLQLFHPQEVSMVRNLIQKDRTFAVLAYSNVQEREAQFGTTAEIYAYREEQDAGIEIVKVKAIGRQRFKVLELRTQSDGIQQAKVQILPECVLPSTMSAVQLESLNKCQIFPSKPVSREDQCSYKWWQKYQKRKFHCANLTSWPRWLYSLYDAETLMDRIKKQLREWDENLKDDSLPSNPIDFSYRVAACLPIDDVLRIQLLKIGSAIQRLRCELDIMNKCTSLCCKQCQETEITTKNEIFSLSLCGPMAAYVNPHGYVHETLTVYKACNLNLIGAPSTEHSWFPGYAWTVAQCKICASHIGWKFTATKKDMSPQKFWGLTRSALLPTIPDTEDEISPDKVILCL [chain 1 F150A R373A]
3.7 mBU | chain 1 MAGEGDQQDAAHNMGNHLPLLPAESEEEDEMEVEDQDSKEAKKPNIINFDTSLPTSHTYLGADMEEFHGRTLHDDDSCQVIPVLPQVMMILIPGQTLPLQLFHPQEVSMVRNLIQKDRTFAVLAYSNVQEREAQFGTTAEIYAYREEQDAGIEIVKVKAIGRQRFKVLELRTQSDGIQQAKVQILPECVLPSTMSAVQLESLNKCQIFPSKPVSREDQCSYKWWQKYQKRKFHCANLTSWPRWLYSLYDAETLMDRIKKQLREWDENLKDDSLPSNPIDFSYRVAACLPIDDVLRIQLLKIGSAIQRLRCELDIMNKCTSLCCKQCQETEITTKNEIFSLSLCGPMAAYVNPHGYVHETLTVYKACNLNLIGRPSTEHSWFPGYAWTVAQCKICASHIGWKFTATKKDMSPQKFWGLTRSALLPTIPDTEDEISPDKVILCL [chain 1 F150A]
2.6 mBU | chain 1 MAGEGDQQDAAHNMGNHLPLLPAESEEEDEMEVEDQDSKEAKKPNIINFDTSLPTSHTYLGADMEEFHGRTLHDDDSCQVIPVLPQVMMILIPGQTLPLQLFHPQEVSMVRNLIQKDRTFAVLAYSNVQEREAQFGTTAEIYAYREEQDFGIEIVKVKAIGRQRFKVLELRTQSDGIQQAKVQILPECVLPSTMSAVQLESLNKCQIFPSKPVSREDQCSYKWWQKYQKRKFHCANLTSWPRWLYSLYDAETLMDRIKKQLREWDENLKDDSLPSNPIDFSYRVAACLPIDDVLRIQLLKIGSAIQRLRCELDIMNKCTSLCCKQCQETEITTKNEIFSLSLCGPMAAYVNPHGYVHETLTVYKACNLNLIGAPSTEHSWFPGYAWTVAQCKICASHIGWKFTATKKDMSPQKFWGLTRSALLPTIPDTEDEISPDKVILCL [chain 1 R373A]
3.3 mBU | chain 1 MAGEGDQQDAAHNMGNHLPLLPAESEEEDEMEVEDQDSKEAKKPNIINFDTSLPTSHTYLGADMEEFHGRTLHDDDSCQVIPVLPQVMMILIPGQTLPLQLFHPQEVSMVRNLIQKDRTFAVLAYSNVQEREAQFGTTAEIYAYREEQDFGIEIVKVKAIGRQRFKVLELRTQSDGIQQAKVQILPECVLPSTMSAVQLESLNKCQIFPSKPVSREDQCSYKWWQKYQKRKFHCANLTSWPRWLYSLYDAETLMDRIKKQLREWDENLKDDSLPSNPIDFSYRVAACLPIDDVLRIQLLKIGSAIQRLRCELDIMNKCTSLCCKQCQETEITTKNEIFSLSLCGPMAAYVNPHGYVHETLTVYKACNLNLIGRPSTAHSWFPGYAWTVAQCKICASHIGWKFTATKKDMSPQKFWGLTRSALLPTIPDTEDEISPDKVILCL [chain 1 E377A]
